± gives the standard deviation of the averaged measurements.
Legend:
[1] = tested on: VchCAST RNA-guided transposition machinery (E. coli BL21(DE3) host, lacZ target); test: relative integration efficiency (T-RL orientation) vs wild-type transposon end (log2 (normalized fold change)); transposon end mutated: right end (5 bp flank + 75 bp right end); higher = more efficient transposition
In short: (§1)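 Co-transformation of E. coli BL21(DE3) combined a pUC57 mini-transposon donor, holding barcoded pools of 1549 left-end or 1849 right-end variants, with a T7-driven plasmid encoding a CRISPR array, tniQ-cas8-cas7-cas6 and tnsA-tnsB-tnsC. After plating with 0.1 mM IPTG at 37°C for 18 h, input plasmids and genomic integration junctions were PCR-amplified and Illumina-sequenced across two biological output replicates, with four reference barcodes. Relative integration efficiency is the normalised, log-transformed output/input barcode fold change.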

[2] = tested on: VchCAST RNA-guided transposition machinery (E. coli BL21(DE3) host, lacZ target); test: relative integration efficiency (T-LR orientation) vs wild-type transposon end (log2 (normalized fold change)); transposon end mutated: right end (5 bp flank + 75 bp right end); higher = more efficient transposition
In short: as §1

Sequence | relative integration efficiency (log2) [1] | relative integration efficiency (log2) [2]
ACATTTGTTGATACAACCATAAAATGATAATTACACCCATAAATTGATAATTATCACACCCATAAATTGATATTGCCTCTGATCATAGTCTGTGATTGTTATCACATTTCAGACCAAGCACCGACAC | -0.0662 ± 0.076 | 0.209 ± 0.1
ACATTTGTTGATACAACCATAAAATGATAATTAATAATTATTTATAATCAGCAACCACCCATAAATTGATAATTATCAACAAACGCCCGGTCGCGGTACTCTGATCATAGTCAGACCAACATTGCTA | -2.29 ± 0.24 | 0.0897 ± 0.14
ACATTTGTTGATACAACCATAAAATGATATAATCACCCATAAATTGATAATTATCACACCCATAAATTGATATTGCCTCTGATCATAGTCAGACCAACATTGCTACGACCCGTATTCGCACCGACAC | -0.575 ± 0.093 | -0.788 ± 0.69
ACATTTGTTGATACAACCATAAGTTGATATTTTCACCCATAAATTGATAATTATCACAACCATATATTGATATCTCCTCTGATCATAGTCAGACCAACATTGCTACGACCCGTATTCGCACCGACAC | -0.64 ± 0.15 | -0.455 ± 0.14
ACATTTGTTGATACAACCATAAAATGATAATTACACGGTAAAATTGATAATTATCACACCCATAAATTGATATTGCCTCTGATCATAGTCAGACCAACATTGCTACGACCCGTATTCGCACCGACAC | -1.85 ± 0.1 | -2.29 ± 0.055
ACATTTGTTGATACAACCATAAAATGATACGGCACAAACGCCCGGTCGCCGGCGACACAAACGCCCGGTCGCGGTAAGAGGATCATAGTCAGACCAACATTGCTACGACCCGTATTCGCACCGACAC | -2.2 ± 0.14 | 0.976 ± 0.29
ACATTTGTGGATACAACCCTAAAATGATAATTACACCCATAAATTCATCATTATCACACCCAATTTAACTATAACGCTCTGATCATAGTCAGACCAACATTGCTACGACCCGTATTCGCACCGACAC | -4.92 ± 0.15 | -1.67 ± 0.21
ACATTTGTTGATACAACCATAAAATCATAATTACACCCATAAATTGATAATTATCCCACCCCATTTAACTATAACGCTCTGATCATAGTCAGACCAACATTGCTACGACCCGTATTCGCACCGACAC | -2.73 ± 0.22 | 1.23 ± 0.046
ACATTTGTTGATACAACCATAAAATGATCATTCACCCATAAATTGATAATTATCACACCCACATTTAACTATAACGCTCTGATCATAGTCAGACCAACATTGCTACGACCCGTATTCGCACCGACAC | -3.25 ± 0.26 | 0.654 ± 0.11
ACATTTGTTGATACAACCATAAACTGATAATTACACCCATAAAGTGATAATTATCACACCCATAAAGTGATATTGCCTCTGATCATAGTCAGACCAACATTGCTACGACCCGTATTCGCACCGACAC | 0.368 ± 0.095 | 0.264 ± 0.12
ACATTTGTTGATACAACCATAAAATGATAATTAGTGGGTATTTAACTATTAATTCACACCCATAAATTGATATTGCCTCTGATCATAGTCAGACCAACATTGCTACGACCCGTATTCGCACCGACAC | -3.76 ± 0.071 | -3.02 ± 0.35
ACATTTGTTGATACAACCATAAAATGATAATTACACCCATAACGGTATAATTATCACACCCATAAATTGATATTGCCTCTGATCATAGTCAGACCAACATTGCTACGACCCGTATTCGCACCGACAC | -1.01 ± 0.024 | -1.21 ± 0.31
ACATTTGTTGATACAACCATAAAATGATAATTACACCCATAAATTGATAATCACACCCATAAATTGATATTGCCTCTGATCATAGTCAGACCAACATTGCTACGACCCGTATTCGCACCGACACTGA | -1.32 ± 0.31 | 1.82 ± 0.057
ACATTTGTTGATACATGCATAAAATGATAATTACACCCATAAATTGATAATTATCACACCCATAAATTGATATTGCCTCTGATCATAGTCAGACCAACATTGCTACGACCCGTATTCGCACCGACAC | -0.321 ± 0.046 | -0.66 ± 0.08
CAAAATGTAAAAAAAACCATACGTTGATTTTACGAAACCATACGCTGAAATAATCACAACCATACCTTGAAATTGCTTATAAAGTGTACAACACTTGAGAAAGTTTACTACAGGTATGCACCGACAC | < -10 | < -10
TGTATTGTTGATACAACCATAAAATGATAATTACACCCATAAATTGATAATTATCACACCCATAAATTGATATTGCCTCTGATCATAGTCAGACCAACATTGCTACGACCCGTATTCGCACCGACAC | -0.0404 ± 0.0046 | 0.421 ± 0.14
ACATTTGTTGATACACCCATAAATTGATAATTACACCCATAAATTGATATTGCTCACAACCATATATTGATATCTCCTCTGATCATAGTCAGACCAACATTGCTACGACCCGTATTCGCACCGACAC | -1.02 ± 0.26 | 0.128 ± 0.24
ACATTTGTTGATACAACCCTAAAATGATAATTACACCCATAAATGGATAATTATCACCCCCAATTTAACTATAACGCTCTGATCATAGTCAGACCAACATTGCTACGACCCGTATTCGCACCGACAC | -3.24 ± 0.23 | -0.791 ± 0.11

Sequence | relative integration efficiency (log2) [1] | relative integration efficiency (log2) [2]
ACATTTGTTGATACAACCATAAAATGATAATTACACCCATAAATTGATAATTATCACACCGTTAAATTGATATTGCCTCTGATCATAGTCAGACCAACATTGCTACGACCCGTATTCGCACCGACAC | -0.625 ± 0.1 | 1.85 ± 0.26
ACATTTGTTGATACACCCATAAATTGATAATTACAACCATAAAGTGATATTTATCACAACCATAAAATGATAATTACTCTGATCATAGTCAGACCAACATTGCTACGACCCGTATTCGCACCGACAC | -0.58 ± 0.22 | -0.432 ± 0.17
ACATTTGTTGATACACCCATAAATTGATATTGCCAACCATAAAATGATAATTATCACAACCATAAGTTGATATTTTCTCTGATCATAGTCAGACCAACATTGCTACGACCCGTATTCGCACCGACAC | -0.46 ± 0.23 | -0.175 ± 0.71
ACATTTGTTGATACACCCATAAATTGATAATTACAACCATATATTGATATCTCTCACAACCATATATTGATATCTCCTCTGATCATAGTCAGACCAACATTGCTACGACCCGTATTCGCACCGACAC | -0.949 ± 0.26 | 0.0245 ± 0.11
ACATTTGTTGATACAACCATAAAATGATAATTAATAATTACACCCATAAATTGATAATTATCACACCCATAAATTGATATTGCCTCTGATCATAGTCAGACCAACATTGCTACGACCCGTATTCGCA | -3.12 ± 0.2 | 0.0363 ± 0.21
ACATTTGTTGATACAAAACGCCCCGTCGCCGGCACAAACGCCCGGTCGCCGGCGACACAAACGCCCGGTCGCGGTAAGAGGATCATAGTCAGACCAACATTGCTACGACCCGTATTCGCACCGACAC | -7.52 ± 1 | -5.49 ± 0.46
ACATTTGTTGATACAACCATAAAATGATAATTCCACCCCTACATTGATAATTATCACACCCAATTTAACTATAACGCTCTGATCATAGTCAGACCAACATTGCTACGACCCGTATTCGCACCGACAC | -3.18 ± 0.52 | 0.35 ± 0.091
ACATTTGTTGATAGTTGCATAAAATGATAATTACACCCATAAATTGATAATTATCACACCCATAAATTGATATTGCCTCTGATCATAGTCAGACCAACATTGCTACGACCCGTATTCGCACCGACAC | -1.07 ± 0.13 | -1.37 ± 0.15
ACATTTGTTGATACAACCATAAAATGATAATTACACCCATAAATTGATAATTATCACTGCCATAAATTGATATTGCCTCTGATCATAGTCAGACCAACATTGCTACGACCCGTATTCGCACCGACAC | -0.228 ± 0.042 | 1.72 ± 0.2
ACATTGGTTCATACAACCATAAAATGATAATTACACCCATAAATTCATAATTATCACACCCAATTTAACTATAACGCTCTGATCATAGTCAGACCAACATTGCTACGACCCGTATTCGCACCGACAC | -6.669 ± 0.029 | -6.28 ± 2.6
ACATTTGTTGATACACCCATAAATTGATATTGCCAACCATAAAGTGATATTTATCAGTGGGTATTTAACTATAACGCTCTGATCATAGTCAGACCAACATTGCTACGACCCGTATTCGCACCGACAC | -1.12 ± 0.16 | 2.341 ± 0.0029
ACATTTGTTGATACAACCATAAAATGATAATTACCACCCATAAATTGATAATTATCACACCCATTTAACTATAACGCTCTGATCATAGTCAGACCAACATTGCTACGACCCGTATTCGCACCGACAC | -0.999 ± 0.21 | 1.69 ± 0.051
ACATTTGTTGATACAACCATAAAATGATAATTACTGCCATAAATTGATAATTATCACACCCATAAATTGATATTGCCTCTGATCATAGTCAGACCAACATTGCTACGACCCGTATTCGCACCGACAC | -0.109 ± 0.19 | -0.602 ± 0.32
ACATTTGTTGATACAACCATCAAATGATAATTCCACCCCTACATTGATAATTATCACACCCAATTTAACTATAACGCTCTGATCATAGTCAGACCAACATTGCTACGACCCGTATTCGCACCGACAC | -4.18 ± 0.17 | -0.8 ± 0.15
ACATTTGTTCTTACAACCATAAAATGATAATTACACCCATAAATTGATAATTATCACACCCATAAATTGATATTGCCTCTGATCATAGTCAGACCAACATTGCTACGACCCGTATTCGCACCGACAC | -0.825 ± 0.14 | -3.55 ± 0.75
ACATTTGTTGATACAACCATAAAATGATAATTACTCTGATCATAGTCAGACCAACATTGCTACGACCCGTATTCGCACCACCCATAAATTGATAATTATCACACCCATAAATTGATATTGCCGACAC | -2.767 ± 0.019 | -0.66 ± 0.24
ACATTTGTTGATACAACCATATATTGATATCTCCACCCATAAATTGATATTGCTCACACCCATAAATTGATATTGCCTCTGATCATAGTCAGACCAACATTGCTACGACCCGTATTCGCACCGACAC | -0.524 ± 0.027 | 0.466 ± 0.081
